The supplement of paper PMC9170038

Tested on: MS2 coat protein
Assay: apparent KD of MS2 coat protein; designed switch direction (-1 OFF switch, 1 ON switch): 1; higher = weaker reporter binding
Outline: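 The apparent KD reported per design is the median over clusters of curve fits to normalised cluster fluorescence. The RNA switches were transcribed on Illumina chips by stalled E. coli RNA polymerase. SNAP-549-labelled MS2 coat protein was titrated from 0.7 or 1.5 nM, doubling up to 3 µM, in Tris-HCl pH 7.5 buffer containing KCl, MgCl2, BSA, DTT, tRNA and Tween-20, with no input, 200 uM small-molecule ligand, or an oligonucleotide input.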

[1] = Eterna round: R95, input ligand: FMN 200 uM
[2] = Eterna round: R95, input ligand: microRNA oligo, concentration not stated
[3] = Eterna round: R95, input ligand: none
[4] = input ligand: microRNA oligo, concentration not stated

Sequence | apparent KD of MS2 coat protein [1] | apparent KD of MS2 coat protein [2] | apparent KD of MS2 coat protein [3] | apparent KD of MS2 coat protein [4] | apparent KD of MS2 coat protein (input ligand: FMN 200 uM) | apparent KD of MS2 coat protein (input ligand: none)
GGAGCCGGUACUGAGGAUAUUCAUUUUAAAACAUGAGGAUCACCCAUGUAGGCCAGAAGGCCUUGGGAGAAGGCAGAUCGGCUCC [Biseusra - 6] (puzzle: Same State 2) | 19 nM | 180 nM | 281 nM |  |  | 
CCAUAGUACAAUUUAGAUCUACAUGAGGAUCACCCAUGUACUGAGGAUAUCAGCUCGAAUAGAGCUGAGAAGGCAGAAUUAAUU [SSNG3/5-A1] (Eterna round: R96, puzzle: Same State NG 3) |  |  |  | 103 nM |  | 
GGCUGCGUUGUGAAGGAUAUCCGCGUCUGGACAUGAGGAUCACCCAUGUAUGCUUGGAUCGUGCCGGAGAAGGUCACGAAUGAUU [JR_SS002_Sub1213] (Eterna round: R96, puzzle: Same State 2) |  |  |  | 29.4 nM | 14 nM | 55.2 nM
CGUCCAGCCUGAGCUGGACAAAAGCAUGUACAUGAGGAUCACCCAUGUUCAUGUACAAGCUUUUUGCUCGUCUUAUU [salish99_208a_r3_050] (puzzle: Sensor for hsa-mir-208a) | 681 nM | 16.1 nM | 739 nM |  |  | 
UUCUUACAUGAGGAUCACCCAUGUGUUGUCGUGGGAGGAUAUCCUUGUUCGGUGGCGUUGGGAGAAGGCCUAUGUU [× ×•×ª×• ×ž×“×™× ×” × ×—×ª-20] (puzzle: Same State 1) |  | 40.4 nM |  |  |  | 
AGUCCAGCAUGAGCUGGACAAAAGCAUGUACAUGAGGAUCACCCAUGUUCAUGUACAAGCUUUUUGCAAGUCAAAAU [Mat - hsa-mir-208a - Mod of JL - 81] (puzzle: Sensor for hsa-mir-208a) | 614 nM | 17.8 nM | 595 nM |  |  | 
AGCUUCAAACUUUGCUCGUCGCGCCAGCGACAUGAGGAUCACCCAUGUGGGCGCAACCUCGUUAGCCCGAGGGCUCG [Labire] (puzzle: Sensor for hsa-mir-208a) | 27.1 nM | 14 nM | 29 nM |  |  | 
ACAUGAGACUCAGGAUAUGUUGUACCUACAUGUGACAUGAGGAUCACCCAUGUGGUAAGUAUGAUACAGAAGGGAGAGAUAUGU [Equivalance 65 - Jieux - Same State NG 2] (Eterna round: R96, puzzle: Same State NG 2) |  |  |  | 22.1 nM | 20.5 nM | 43.6 nM
AGUCCAGCCUGAGCUGGACAAAAGCAUGUACAUGAGGAUCACCCAUGUUCAUGUACAAGCUUUUUGCUCGUCUAAAG [Mat - hsa-mir-208a - Mod of JL - 66] (puzzle: Sensor for hsa-mir-208a) | 506 nM | 16.6 nM | 880 nM |  |  | 
UGACACACGGCAGGAUAUCGAUUGCAAAGCAAUCGAGAAGGGCCUCAUGUCGUGGAAACGUGACAUGAGGAUCACCCAUGUUGC [Omei SS(NG)1 Cv14] (Eterna round: R96, puzzle: Same State NG 1) |  |  |  | 19.6 nM | 178 nM | 32.9 nM
CAUCCCUCCACAGGAUAUCGACCAAUAAAACGGCGAGAAGGGUGGCCACAUGAGGAUCACCCAUGUGGAAUUGGAUGAACUACC [Atusmaceor] (Eterna round: R96, puzzle: Same State NG 1) |  |  |  | 120 nM | 141 nM | 77 nM
GGAGCCAAGGCAGGAUAUUCAUAUUAAAACAUGAGGAUCACCCAUGUAAAGGCCAGAAGGCCUUUGGAGAAGGGCCAUGGCUCG [Xeonanis - 13 mod14] (Eterna round: R96, puzzle: Same State NG 2) |  |  |  | 15 nM | 17.7 nM | 24.4 nM
GAGUGGCAGUUAGGAUAUAUAGUGAUAAUCACAGUAGAAGGAACUGACAUGAGGAUCACCCAUGUAGGACUAAUCCAGAGAGAG [Parity 41 - Jieux - Same State NG 1] (Eterna round: R96, puzzle: Same State NG 1) |  |  |  | 29.8 nM | 65.7 nM | 44.2 nM
GUAAAACAUGAGGAUCACCCAUGUAAUAUAAUGGGAGGAUAUCUGAUUUAAUUUAAUUUAAGAGAAGGCCUAAAUG [Mat - Same State 1 - Mod of Eli - D57] (puzzle: Same State 1) | 39.6 nM | 268 nM | 372 nM |  |  | 
AUGCCAAAUCGAGGAUAUGGAGCCUUAUUGGCUCCAGAAGGUGAGACAUGAGGAUCACCCAUGUGGCAGUGGUCUAAUGACCAC [Fiskers NG1ss - 32] (Eterna round: R96, puzzle: Same State NG 1) |  |  |  | 270 nM | 174 nM | 581 nM
GGAGCCAAGGCAGGAUAUUCAUAUUAAAACAUGAGGAUCACCCAUGUAAAGGCCAGAAGGCCGUGGGAGAAGGGCCAUGGCUCG [Xeonanis - 13 mod15] (Eterna round: R96, puzzle: Same State NG 2) |  |  |  | 51.7 nM | 38.5 nM | 116 nM
UGUACCUUCACAGGAUAUCAUGCGAAAAUUGCGUGAGAAGGGUGAAUACUGUCUUUCUAAGAGCACAUGAGGAUCACCCAUGUA [SameState NG1 #59] (Eterna round: R96, puzzle: Same State NG 1) |  |  |  | 206 nM | 195 nM | 278 nM
GGAAAACAUGAGGAUCACCCAUGUGAAAACGUGGGAGGAUAUCGAUGGAAACCAUACUGUCGAGAAGGCCCAUGUC [EteRNA is fun!] (Eterna round: R96, puzzle: Same State 1) |  |  |  | 41.8 nM |  | 
UUAUCUCAGACAUGAGGAUCACCCAUGUUUUUUUGUCUUUGACAGGAUAUAGUUGUUUCGUUUUACUAGAAGGGUCAUUUUAUU [JR_SSNG3_Sub024] (Eterna round: R96, puzzle: Same State NG 3) |  |  |  | 20.8 nM | 20.3 nM | 29.8 nM
ACAAGCUUUUCUGCAUUGAAAGGUGGGAUACAUGAGGAUCACCCAUGUUUUUAUGAAAAUAAUGCUCCUCGUCUUAU [JR_SHM208A_Sub092] (puzzle: Sensor for hsa-mir-208a) | 214 nM | 50.3 nM | 243 nM |  |  | 
AAAACACAUGAGGAUCACCCAUGUACCAGGUACAUAGGAUAUCCAGGCGCCAAAUAGCGCGGAGAAGGAUGGAAAA [Radireatdi] (puzzle: Same State 1) | 78.2 nM | 237 nM | 1760 nM |  |  | 
GGACGUCAAUAUGAAUUCCACAUGAGGAUCACCCAUGUUCAUGAGGAUAUGGAUCCUAAUUGGAUCCAGAAGGCAUGGACGUCC [Fiskers NG3ss - 38] (Eterna round: R96, puzzle: Same State NG 3) |  |  |  | 163 nM | 81.9 nM | 194 nM
UCGGGCGUACUUGCUGACAUGAGGAUCACCCAUGUCCUUGGGCAGGAUAUGGUUCCGUUUCGGUUCCAGAAGGUCCUGGCUGCU [salish99_SSNG3_r04_318] (Eterna round: R96, puzzle: Same State NG 3) |  |  |  | 24.4 nM | 18.1 nM | 25.5 nM
